These results are taken from US8338123B2, “Food production process” (DSM IP Assets B.V., priority 2002, dated 2012).

One data set has as its system humans. The conditions noted are these: life-long exposure, daily uptake 1.6 ug acrylamide/kg; cited from earlier work.
Substrate in data set [1]: NC(=O)C[C@H](N)C(=O)O
Briefly: purified protein, by the assay type. The conditions noted are these: other: substrate L-asparagine, pH 5.5, 37° C.

As to `C=CC(N)=O` [acrylamide], the cancer risk in the data set on humans was 7*10^−3.

B1: Aspergillus niger asparaginase ASPA01, SEQ ID NO: 3 (Aspergillus niger CBS 513.88) (protein)
chain: SPLLYSRTTNETFVFTNANGLNFTQMNTTLPNVTIFATGGTIAGSDSSSTATTGYTSGAVGVLSLIDAVPSMLDVANVAGVQVANVGSEDITSDILISMSKKLNRVVCEDPTMAGAVITHGTDTLEETAFFLDATVNCGKPIVIVGAMRPSTAISADGPFNLLEAVTVAASTSARDRGAMVVMNDRIASAYYVTKTNANTMDTFKAMEMGYLGEMISNTPFFFYPPVKPTGKVAFDITNVTEIPRVDILFSYEDMHNDTLYNAISSGAQGIVIAGAGAGGVTTSFNEAIEDVINRLEIPVVQSMRTVNGEVPLSDVSSDTATHIASGYLNPQKSRILLGLLLSQGKNITEIADVFALGTDA
What is called Km is the substrate concentration at which the rate is half of its maximum. By Vmax is commonly meant the rate approached at saturating substrate. With B1, in data set [1], the Km was 2400 ± 300 µM and the maximum rate (Vmax) amounted to 1100 µmol/min/mg.
